{
  "source": "paper PMC12205087",
  "key": {"[1]": {"target": "DREN-APAZ protein of the NbaSPARDA system, strep-tagged (Novosphingopyxis baekryungensis)", "assay": "cryo-EM structure; substrate-bound complex: NbaSPARDA with gRNA, 21-nt tDNA and substrate ssDNA, 0.16 mg/mL; filament, 3.19 Å"}, "[2]": {"target": "DREN-APAZ protein of the NbaSPARDA system, strep-tagged (Novosphingopyxis baekryungensis)", "assay": "cryo-EM structure; active complex: NbaSPARDA with gRNA and 21-nt tDNA (1:1.2:1.2), 0.2 mg/mL; filament, 3.18 Å"}, "[3]": {"target": "NbaSPARDA complex (heterodimer of NbaAgo and DREN-APAZ), wild type (Novosphingopyxis baekryungensis)", "assay": "cryo-EM structure; guide-bound complex: NbaSPARDA with 20-nt 5'-phosphorylated gRNA (1:1.2, 25 °C, 15 min), 0.4 mg/mL, buffer F (20 mM Tris-HCl pH 8.0, 200 mM NaCl, 2 mM DTT, 2 mM MgCl2); 2.93 Å, C2 symmetry"}, "[4]": {"target": "NbaSPARDA complex (heterodimer of NbaAgo and DREN-APAZ), wild type (Novosphingopyxis baekryungensis)", "assay": "cryo-EM structure; active complex: NbaSPARDA with gRNA and 21-nt tDNA (1:1.2:1.2), 0.2 mg/mL; filament, 3.18 Å"}},
  "data": [
    {"substance": "DREN-APAZ protein of the NbaSPARDA system, strep-tagged (natural protein)", "values": [
      {"measurement": "stoichiometry N", "setting": "[1]", "result": 4},
      {"measurement": "stoichiometry N", "setting": "[2]", "result": 4}
    ]},
    {"substance": "NbaSPARDA complex (heterodimer of NbaAgo and DREN-APAZ), wild type", "values": [
      {"measurement": "stoichiometry N", "setting": "[3]", "result": 2},
      {"measurement": "stoichiometry N", "setting": "[4]", "result": 32, "unit": "copies"}
    ]}
  ]
}
